Assay results reported in patent publication US8637043B2, “Compositions useful as ligands for the formyl peptide receptor like 1 receptor and methods of use thereof” (Chemocentryx, Inc., priority 2001, dated 2014).
Marks after values point to notes of the source that are not given here. Ends that are not written are not given here.

What was measured:
mononuclear cells = experiment: Mononuclear cell infiltration into the dermis after intradermal injection; format: in vivo, Rhesus macaques; conditions: for cell infiltration, in words: summary of Table 18
Method: Different amounts (8, 20, or 60 μg in 100 μl PBS) of different polypeptides (see Table 18) were injected intradermally in Rhesus macaques under anesthesia. Twenty-four and 48 hours later, 6 mm skin punch biopsies were taken using aseptic technique and then bisected. One portion of the biopsy was embedded in OCT compound, flash frozen in liquid nitrogen and stored at −70° C. The other portion was immersed in formalin and embedded in paraffin wax; subsequently, sections cut on a microtome were stained with hematoxylin and eosin and then microscopically examined for cell infiltration into the dermis (Table 18). As a negative control, monkeys were injected with PBS lacking any polypeptides.
Mononuclear cell infiltration was scored on a scale of 0 to 5:0, very mild perivascular mononuclear inflammatory infiltration throughout the dermis; 1, a mild perivascular mononuclear inflammatory infiltrate seen throughout the dermis; 2, a mild/moderate perivascular mononuclear inflammatory infiltrate seen throughout the dermis; 3, a moderate perivascular mononuclear inflammatory infiltrate seen throughout the dermis; 4, an extensive perivascular mononuclear inflammatory infiltrate seen throughout the dermis; 5, a florid perivascular mononuclear inflammatory infiltrate seen throughout the dermis. intermediate scores are indicates, e.g., “⅔” represents a score between 2 and 3.

human monocytes = experiment: Calcium flux in human monocytes; format: cell-based; conditions: for calcium flux: human monocytes, Example 8; for calcium release: freshly prepared human monocytes, up to 250 nM
Method: (§1) Ca^2+ mobilization responses were performed using the intracellular ratiometric fluorescent dye, lndo-1. Cells were loaded with Indo-1/AM (3 μM; Molecular Probes, Eugene, Oreg.) in culture medium (45 min, 20° C., 10^7 cells/ml). After dye loading, cells were washed once with 10 ml PBS) and resuspended at 10^6 cell/ml in HBSS containing 1% FBS. Cytosolic [Ca^2+] release was determined using excitation at 350 nm using a Photon Technology International fluorimeter (excitation at 350 nm, ratioed dual emission at 400 and 490 nm).
The human recombinant chemokines, leukotactin, MlP-1α, three known CKβ8 variants CKβ8(1-99), CKβ8(25-99), CKβ8-1(1-116) and a novel NH2-terminal truncated form of CKβ8-1, CKβ8-1 (25-116) were obtained from R&D Systems (Minneapolis, Minn.). Human monocytes were generated from buffy coats (Stanford Blood Center, Palo Alto, Calif.) following a standard protocol. Briefly, PBMC were isolated by standard density gradient centrifugation (Ficoll-Paque-Plus, Pharmacia). Monocytes were purified using CD14 Microbeads (Miltenyi, Auburn, Calif.) magnetic positive selection. Human neutrophils were isolated from fresh peripheral blood from healthy individuals by gradient centrifugation on Ficoll-Hypaque (Hyclone, Calif.).
The activity of the CCL23 variants was tested on freshly prepared human monocytes and neutrophils using the calcium flux test described in Example 1.
Human monocytes were either generated from buffy coats (Stanford Blood Center, Palo Also, Calif.) or from fresh blood of healthy individuals following a standard protocol. Briefly, PBMC were isolated by a Ficoll-Paque gradient centrifugation (Ficoll-Paque-Plus, Pharmacia). Monocytes were purified by CD14 Microbeads (Miltenyi) magnetic positive selection. Human neutrophils were isolated from fresh blood by dextran sedimentation and gradient centrifugation Ficoll-Paque gradient centrifugation. All cells were washed and resuspended (1×10^7/ml) in RPMI medium with 10% FBS.
as §1, with “an” for “the”, “Indo-1.” for “lndo-1.”, “Probes (Eugene, Oreg.))” for “Probes, Eugene, Oreg.)”, “cells/mi).” for “cells/ml).”, “(10” for “with 10”

human FPRL1 = target: T1, human FPRL1 (Homo sapiens, UniProt P25090); experiment: Calcium flux in FPRL1-L1.2 transfectants; format: cell-based; conditions: for Designation and FPRL1 Activity: qualitative rating high, moderate, low, see Example 9; for Notes: activity: qualitative rating, Table 6; for calcium release / mobilization: FPRL1 expressing L1.2 cells
T1 construct: Full length cDNA encoding FPRL1 was cloned, using the polymerase chain reaction (PCR), from genomic DNA isolated from undifferentiated HL-60 cells; expressed in transfected cells; linearized FPRL1/pcDNA3.1, electroporation
T1 sequence (P25090 1-351): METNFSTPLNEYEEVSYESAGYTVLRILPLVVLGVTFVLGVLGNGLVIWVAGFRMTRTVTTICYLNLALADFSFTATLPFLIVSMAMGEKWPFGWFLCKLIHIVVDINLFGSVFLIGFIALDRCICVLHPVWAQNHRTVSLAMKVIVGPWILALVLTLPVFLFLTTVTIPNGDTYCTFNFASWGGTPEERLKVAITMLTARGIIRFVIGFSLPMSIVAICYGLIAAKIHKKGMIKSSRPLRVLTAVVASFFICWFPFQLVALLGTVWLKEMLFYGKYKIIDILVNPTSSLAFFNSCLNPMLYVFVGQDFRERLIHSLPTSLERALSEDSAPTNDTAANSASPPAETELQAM
Method: as §1
The functional activities of CKβ8-1 (25-116) were investigated in human FPRL1-L1.2 transfectants and in native L1.2 cells. Stable expression of formyl peptide-like receptor 1 (FPRL1) in L.1.2 cell was obtained as follows. Full length cDNA encoding FPRL1 was cloned, using the polymerase chain reaction (PCR), from genomic DNA isolated from undifferentiated HL-60 cells. […] Twenty micrograms of the FPRL1/pcDNA3.1 construct were linearized by digestion with Bsm1 (New England Biolabs, Beverly, Mass.) and used to transfect the murine B cell line L1.2 as follows. Twenty five million cells were washed twice and resuspended in 0.8 ml of PBS. The cells were incubated for 10 min at room temperature with the linearized FPRL/pcDNA3.1 construct DNA and transferred to a 0.4-cm cuvette, and a single electroporation pulse was applied at 250 V, 960 μF. Electroporated cells were incubated for 10 min at room temperature and transferred to culture at 37° C. in RPMI supplemented with 10% FCS. Geneticin (G418) was added to a final concentration of 800 μg/ml 48 h posttransfection and the cells plated into 96-well plates at 25,000 cells/well. After 2-3 weeks under drug selection, stable geneticin-resistant FPLR1 expressing cells were assessed for their ability to mobilize Ca^++ in response to SHAAGtide or CKbeta 8-1 at concentrations of 1 to 1000 nM.
A calcium flux test was performed on these transfectants using the method described in Example 1.
Stable expression of human FPRL1 in L1.2 cells was obtained as in Example 6. Calcium flux tests were conducted on the transfectants using the method described in Example 1. Chemokines (CKβ8(1-99), CKβ8(25-99), CKβ8-1(1-116) and CKβ8-1(25-116), were prepared as in Example 1. W peptides 1 and 2 were obtained as in Example 6. In addition, and the following SHAAGtide sequences and truncated variants (prepared as in Example 8) were tested:
All ligands were added in a dose response manner and the peak calcium flux response determined.

[1] = 60 μg intradermally, 24 hours, scale 0 (very mild) to 5 (florid)

## MLWRRKIGPQMTLSHAAY [SEQ ID NO: 6]
Mononuclear cells; 8 μg, 24 hours
  Mononuclear cell infiltration score: 0
Mononuclear cells; 8 μg, 48 hours
  Mononuclear cell infiltration score: 0
Mononuclear cells; 20 μg, 24 hours
  Mononuclear cell infiltration score: 2*
Mononuclear cells; 20 μg, 48 hours
  Mononuclear cell infiltration score: 0
Mononuclear cells; [1]
  Mononuclear cell infiltration score: 0
Mononuclear cells; 60 μg, 48 hours
  Mononuclear cell infiltration score: 0
Mononuclear cells
  cell infiltration, in words: moderately strong infiltration in one of the two animals
Human monocytes
  calcium flux: robust calcium flux
Human FPRL1
  Designation and FPRL1 Activity: high
  Notes: activity: high

## MLWRRKIGPQMTLSHAAG [SEQ ID NO: 1]
Human monocytes
  calcium flux: robust calcium flux
Human FPRL1
  Designation and FPRL1 Activity: high
  Notes: activity: high

B1: CKβ8-1(25-116): novel NH2-terminal truncated form of CKβ8-1, SEQ ID NO: 16, human recombinant chemokine (protein, listed as Homo sapiens)
chain: MLWRRKIGPQMTLSHAAGFHATSADCCISYTPRSIPCSLLESYFETNSECSKPGVIFLTKKGRRFCANPSDKQVQVCMRMLKLDTRIKTRKN
Mononuclear cells; 20 μg, 24 hours
  Mononuclear cell infiltration score: 0
Mononuclear cells; 20 μg, 48 hours
  Mononuclear cell infiltration score: 0
Mononuclear cells; [1]
  Mononuclear cell infiltration score: 0
Mononuclear cells; 60 μg, 48 hours
  Mononuclear cell infiltration score: 0
Mononuclear cells
  cell infiltration, in words: no infiltration
Human monocytes
  calcium release: unique calcium flux with extended calcium release
  calcium flux: robust calcium flux
Human monocytes; monocytes, 100 nM
  maximal receptor stimulation compared with leukotactin: at least two fold higher
Human FPRL1
  calcium release / mobilization: stimulated calcium release
Human FPRL1; listed as CKβ8(25-116)
  calcium release / mobilization: induced calcium mobilization

B2: CKβ8-1(1-116): alternatively spliced form of CKβ8, 116 amino acids, human recombinant chemokine (protein, listed as Homo sapiens)
chain: RVTKDAETEFMMSKLPLENPVLLDMLWRRKIGPQMTLSHAAGFHATSADCCISYTPRSIPCSLLESYFETNSECSKPGVIFLTKKGRRFCANPSDKQVQVCMRMLKLDTRIKTRKN
Human monocytes
  calcium release: poor activity
Human FPRL1
  calcium release / mobilization: no activity
Human FPRL1; listed as CKβ8(1-116)
  calcium release / mobilization: did not give significant mobilization

B3: CKβ8(25-99): known truncated CKβ8 variant, human recombinant chemokine from R&D Systems (protein, listed as Homo sapiens)
chain: RFHATSADCCISYTPRSIPCSLLESYFETNSECSKPGVIFLTKKGRRFCANPSDKQVQVCMRMLKLDTRIKTRKN
Human monocytes
  calcium release: slightly higher calcium stimulation
